Measurements taken from paper PMC8633249.

Tests used:
[1] = target: AGL55, 55-mer A-domain peptide of PAM_(NS88.2) (Streptococcus pyogenes (GAS isolate NS88.2)); assay: ITC; K2hPg (syringe) titrated into AGL55 (30 µM, cell); 50 mM sodium phosphate/100 mM NaCl, pH 7.4; 4°C; hetero-association model A + B (Sedphat)
[2] = target: PAM_(NS88.2), plasminogen-binding Group A streptococcal M-protein from GAS isolate NS88.2 (Streptococcus pyogenes (GAS isolate NS88.2)); assay: AUC; sedimentation equilibrium of the K2hPg/PAM_(NS88.2) complex isolated by gel filtration, at the temperature of its isolation (4°C, 25°C, 37°C); 50 mM sodium phosphate/100 mM NaCl, pH 7.4
[3] = target: PAM_(NS88.2), plasminogen-binding Group A streptococcal M-protein from GAS isolate NS88.2 (Streptococcus pyogenes (GAS isolate NS88.2)); assay: ITC; K2hPg (syringe) titrated into PAM_(NS88.2) (6 µM as monomer, cell); 50 mM sodium phosphate/100 mM NaCl, pH 7.4; 37°C; hetero-association model (Sedphat)
[4] = target: AGL55, 55-mer A-domain peptide of PAM_(NS88.2) (Streptococcus pyogenes (GAS isolate NS88.2)); assay: ITC; K2hPg (syringe) titrated into AGL55 (30 µM, cell); 50 mM sodium phosphate/100 mM NaCl, pH 7.4; 25°C; hetero-association model A + B (Sedphat)
[5] = target: PAM_(NS88.2), plasminogen-binding Group A streptococcal M-protein from GAS isolate NS88.2 (Streptococcus pyogenes (GAS isolate NS88.2)); assay: ITC; K2hPg (syringe) titrated into PAM_(NS88.2) (6 µM as monomer, cell); 50 mM sodium phosphate/100 mM NaCl, pH 7.4; 25°C; only the final inflection fitted, hetero-association model A + B (Sedphat)
[6] = target: PAM_(NS88.2), plasminogen-binding Group A streptococcal M-protein from GAS isolate NS88.2 (Streptococcus pyogenes (GAS isolate NS88.2)); assay: ITC; K2hPg (syringe) titrated into PAM_(NS88.2) (6 µM as monomer, cell); 50 mM sodium phosphate/100 mM NaCl, pH 7.4; 4°C; hetero-association model of K2hPg and PAM monomer (Sedphat)
[7] = target: AGL55, 55-mer A-domain peptide of PAM_(NS88.2) (Streptococcus pyogenes (GAS isolate NS88.2)); assay: ITC; K2hPg (syringe) titrated into AGL55 (30 µM, cell); 50 mM sodium phosphate/100 mM NaCl, pH 7.4; 37°C; hetero-association model A + B (Sedphat)
[8] = target: AGL55, 55-mer A-domain peptide of PAM_(NS88.2) (Streptococcus pyogenes (GAS isolate NS88.2)); assay: SEC-MALS; K2hPg/AGL55 mixture on a Wyatt 030S5 column, UV, RI and MALS detection, protein conjugate analysis; 50 mM Na-phosphate/100 mM NaCl, pH 7.4; 25°C
[9] = target: PAM_(NS88.2), plasminogen-binding Group A streptococcal M-protein from GAS isolate NS88.2 (Streptococcus pyogenes (GAS isolate NS88.2)); assay: AUC; apo-PAM_(NS88.2), sedimentation equilibrium at two rotor speeds (<0.2 mg/ml) and sedimentation velocity (6 µM); 50 mM sodium phosphate/100 mM NaCl, pH 7.4; 4°C, 15°C and 25°C

| Substance | stoichiometry N [1] | stoichiometry N [2] | Kd [3] [nM] | dH [3] [kcal/mol] | stoichiometry N [4] | Kd [5] [nM] | Kd [6] [nM] | dH [6] [kcal/mol] | stoichiometry N [7] | stoichiometry N [8] | stoichiometry N [9] |
| --- | --- | --- | --- | --- | --- | --- | --- | --- | --- | --- | --- |
| K2hPg, kringle-2 domain of human plasminogen (from UniProt P00747 183-262) (domain or fragment) | 1 m:m | 1 m:m | 181 | -37 | 1 m:m | 2.7 | 0.7 | -13.7 | 1 m:m | 1 m:m | – |
| PAM_(NS88.2), plasminogen-binding Group A streptococcal M-protein from GAS isolate NS88.2 (natural protein) | – | – | – | – | – | – | – | – | – | – | 2 |
